Several values for one entry are separate records, joined by “and”; a condition that tells them apart may be missing. Equal values may be shown once.
B1: Drosophila melanogaster GTPase Rap1 G12V (amino acids 1-180), GMPPNP-loaded (enzyme, UniProt P08645 1-180, looked up)
chain: MREYKIVVLGSVGVGKSALTVQFVQCIFVEKYDPTIEDSYRKQVEVDGQQCMLEILDTAGTEQFTAMRDLYMKNGQGFVLVYSITAQSTFNDLQDLREQILRVKDTDDVPMVLVGNKCDLEEERVVGKELGKNLATQFNCAFMETSAKAKVNVNDIFYDLVRQINKKSPEKKQKKPKKSL
B2: Drosophila melanogaster Cno RA1 domain (amino acids 1-137) (domain or fragment, UniProt Q24279 1-137, looked up)
chain: MSHDKKMLDREAVRSVIQQWNANRLDLFALSEPDENLLFHGVMRFYFQDAGQKVATKCIRVASDATVTDVIDTLIEKFRPDMRMLSVPNYALYEVHANGEERRLNADEKPLLVQLNWHIDDREGRFLLKNIDQKTTP
B3: Drosophila melanogaster Cno RA2 domain (amino acids 222-350) (domain or fragment, UniProt Q24279 222-350, looked up)
chain: TRSISNPEAVMRRRRQQKLEKKLQQFRSRDGGPDTGGTLKIYGESLCQDVPYKTLLLSIRDCAQAVVREMLTKYGLEKADPLHYCLVQVNSDGTEYILDDDECPLSILMNHPTSRGSIMFHVRRRPADS

Columns and labels:
[1] = target: B2; experiment: SEC-MALS
[2] = target: B3; experiment: ITC
[3] = target: B2; experiment: ITC
[4] = target: B1; experiment: ITC

Row | stoichiometry N [1] | dH [2] | stoichiometry N [2] | dH [3] | stoichiometry N [3] | Kd [4] | Binder
1 | 1 | -3.07 kcal/mol and -2.18 kcal/mol and -2.72 kcal/mol | 0.755 and 0.73 and 0.63 | -4.38 kcal/mol and -4.79 kcal/mol | 0.717 | – | B1
2 | – | – | – | – | – | 4.5 µM and 5.9 µM | B2
3 | – | – | – | – | – | 8.8 µM and 7.9 µM and 8.7 µM | B3
